Reference: US20120045437A1 (BOARD OF REGENTS OF THE UNIVERSITY OF OKLAHOMA, published 2012)

What was measured:
[1] = target: endogenous bovine LRP6 (bovine); experiment: cell-based or functional assay
endogenous human LRP6 = endogenous human LRP6 (human, UniProt O75581 20-1613); experiment: cell-based or functional assay
endogenous mouse LRP6 = target: T1, endogenous mouse LRP6 (mouse, UniProt O88572 20-1613); experiment: Western blot, total cell lysates
T1 construct: whole, on cells; Tested as total cell lysate (Western blot) and in mouse retinal cryosections (immunostaining); also called LRP6 (mouse)
Experimental: (§1) A: HEK-293T cells were separately transfected with plasmids expressing LRP5-Flag and LRP6-Myc, with an empty vector as control. Forty-eight hours post-transfection, total cell lysates (50 μg) were applied for Western blot analysis using Anti-LRP6-1 and an anti-Flag antibody (M2). B: The ability of Anti-LRP6-1 to recognize endogenous LRP6 in different species. Total cell lysates (50 μg) from each cell line were applied for Western blot analysis using Anti-LRP6-1. C: Conditioned media containing LDLRN-Myc, LRP5N-Myc and LRP6N-Myc, and purified recombinant peptides of VLDLR-N-His, LRP6E1E2-His and LRP6E3E4-His were loaded for Western blot analysis using Anti-LRP6-1, anti-His and anti-Myc antibodies. D: Immuno-localization of LRP6 in the retinal cryosections. FITC-labeled Anti-LRP6-1 was used to determine the cellular localization of LRP6 in the retinas of rats (D1-D6) and mice (D7-D12). Non-specific mouse IgG was labeled with FITC and used as a negative control (D1, D4, D7, D10). The sections were stained with FITC-Anti-LRP6-1 (D2, D5, D8, D11). FITC-Anti-LRP6-1 pre-absorbed with 10 μg/ml purified LRP6E1E2-His antigen was used for staining to confirm the specificity of the immunosignals of LRP6 (D3, D6, D9, D12). […]

VLDLR-N-His = target: T2, VLDLR-N-His (human, UniProt P98155 28-797, limits assumed); experiment: Western blot, recombinant VLDLR-N-His
T2 construct: domain: VLDLR-N; also called very low-density lipoprotein receptor; not shown: 6x histidine tag
Experimental: (§2) FIG. 15 illustrates specificity of Anti-LRP6-1 on LRP6 ectodomain. A: HEK-293T cells were separately transfected with plasmids expressing LRP5-Flag and LRP6-Myc, with an empty vector as control. Forty-eight hours post-transfection, total cell lysates (50 μg) were applied for Western blot analysis using Anti-LRP6-1 and an anti-Flag antibody (M2). B: The ability of Anti-LRP6-1 to recognize endogenous LRP6 in different species. Total cell lysates (50 μg) from each cell line were applied for Western blot analysis using Anti-LRP6-1. C: Conditioned media containing LDLRN-Myc, LRP5N-Myc and LRP6N-Myc, and purified recombinant peptides of VLDLR-N-His, LRP6E1E2-His and LRP6E3E4-His were loaded for Western blot analysis using Anti-LRP6-1, anti-His and anti-Myc antibodies. D: Immuno-localization of LRP6 in the retinal cryosections. FITC-labeled Anti-LRP6-1 was used to determine the cellular localization of LRP6 in the retinas of rats (D1-D6) and mice (D7-D12). Non-specific mouse IgG was labeled with FITC and used as a negative control (D1, D4, D7, D10). The sections were stained with FITC-Anti-LRP6-1 (D2, D5, D8, D11). FITC-Anti-LRP6-1 pre-absorbed with 10 μg/ml purified LRP6E1E2-His antigen was used for staining to confirm the specificity of the immunosignals of LRP6 (D3, D6, D9, D12).

LRP6E3E4-His = target: T3, LRP6E3E4-His (human, UniProt O75581 631-1244); experiment: Western blot, purified recombinant fragment
T3 construct: Expressed in E. coli BL21(DE3); Only its E3E4 part stood in the assay; also called E3E4 domain of LRP6; not shown: His tag from pET28b+
T3 sequence: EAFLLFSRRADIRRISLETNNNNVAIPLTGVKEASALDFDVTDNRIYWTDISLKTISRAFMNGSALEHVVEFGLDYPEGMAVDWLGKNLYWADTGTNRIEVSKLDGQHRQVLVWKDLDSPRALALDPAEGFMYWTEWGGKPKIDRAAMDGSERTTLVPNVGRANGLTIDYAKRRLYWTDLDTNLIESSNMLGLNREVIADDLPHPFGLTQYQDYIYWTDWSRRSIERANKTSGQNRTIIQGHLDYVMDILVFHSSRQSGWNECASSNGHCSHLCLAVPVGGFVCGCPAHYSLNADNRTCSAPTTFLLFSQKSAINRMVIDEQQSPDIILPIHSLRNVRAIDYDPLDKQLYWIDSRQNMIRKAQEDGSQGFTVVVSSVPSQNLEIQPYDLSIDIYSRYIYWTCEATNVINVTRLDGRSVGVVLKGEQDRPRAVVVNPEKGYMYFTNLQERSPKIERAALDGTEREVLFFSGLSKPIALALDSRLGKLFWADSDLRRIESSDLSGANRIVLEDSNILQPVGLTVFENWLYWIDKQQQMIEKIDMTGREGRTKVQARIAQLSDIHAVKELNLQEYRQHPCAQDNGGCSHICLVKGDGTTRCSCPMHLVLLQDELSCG
Experimental: as §2

[2] = target: T4, LRP5-Flag (human full-length LRP5) (human, UniProt O75197 32-1615); experiment: Western blot, total lysates (50 ug) of transfected HEK-293T cells
T4 construct: Tested as total lysate of transfected HEK-293T cells in a Western blot; not shown: Flag tag
Experimental: as §1

Sequence of endogenous human LRP6 (O75581 20-1613 limits assumed): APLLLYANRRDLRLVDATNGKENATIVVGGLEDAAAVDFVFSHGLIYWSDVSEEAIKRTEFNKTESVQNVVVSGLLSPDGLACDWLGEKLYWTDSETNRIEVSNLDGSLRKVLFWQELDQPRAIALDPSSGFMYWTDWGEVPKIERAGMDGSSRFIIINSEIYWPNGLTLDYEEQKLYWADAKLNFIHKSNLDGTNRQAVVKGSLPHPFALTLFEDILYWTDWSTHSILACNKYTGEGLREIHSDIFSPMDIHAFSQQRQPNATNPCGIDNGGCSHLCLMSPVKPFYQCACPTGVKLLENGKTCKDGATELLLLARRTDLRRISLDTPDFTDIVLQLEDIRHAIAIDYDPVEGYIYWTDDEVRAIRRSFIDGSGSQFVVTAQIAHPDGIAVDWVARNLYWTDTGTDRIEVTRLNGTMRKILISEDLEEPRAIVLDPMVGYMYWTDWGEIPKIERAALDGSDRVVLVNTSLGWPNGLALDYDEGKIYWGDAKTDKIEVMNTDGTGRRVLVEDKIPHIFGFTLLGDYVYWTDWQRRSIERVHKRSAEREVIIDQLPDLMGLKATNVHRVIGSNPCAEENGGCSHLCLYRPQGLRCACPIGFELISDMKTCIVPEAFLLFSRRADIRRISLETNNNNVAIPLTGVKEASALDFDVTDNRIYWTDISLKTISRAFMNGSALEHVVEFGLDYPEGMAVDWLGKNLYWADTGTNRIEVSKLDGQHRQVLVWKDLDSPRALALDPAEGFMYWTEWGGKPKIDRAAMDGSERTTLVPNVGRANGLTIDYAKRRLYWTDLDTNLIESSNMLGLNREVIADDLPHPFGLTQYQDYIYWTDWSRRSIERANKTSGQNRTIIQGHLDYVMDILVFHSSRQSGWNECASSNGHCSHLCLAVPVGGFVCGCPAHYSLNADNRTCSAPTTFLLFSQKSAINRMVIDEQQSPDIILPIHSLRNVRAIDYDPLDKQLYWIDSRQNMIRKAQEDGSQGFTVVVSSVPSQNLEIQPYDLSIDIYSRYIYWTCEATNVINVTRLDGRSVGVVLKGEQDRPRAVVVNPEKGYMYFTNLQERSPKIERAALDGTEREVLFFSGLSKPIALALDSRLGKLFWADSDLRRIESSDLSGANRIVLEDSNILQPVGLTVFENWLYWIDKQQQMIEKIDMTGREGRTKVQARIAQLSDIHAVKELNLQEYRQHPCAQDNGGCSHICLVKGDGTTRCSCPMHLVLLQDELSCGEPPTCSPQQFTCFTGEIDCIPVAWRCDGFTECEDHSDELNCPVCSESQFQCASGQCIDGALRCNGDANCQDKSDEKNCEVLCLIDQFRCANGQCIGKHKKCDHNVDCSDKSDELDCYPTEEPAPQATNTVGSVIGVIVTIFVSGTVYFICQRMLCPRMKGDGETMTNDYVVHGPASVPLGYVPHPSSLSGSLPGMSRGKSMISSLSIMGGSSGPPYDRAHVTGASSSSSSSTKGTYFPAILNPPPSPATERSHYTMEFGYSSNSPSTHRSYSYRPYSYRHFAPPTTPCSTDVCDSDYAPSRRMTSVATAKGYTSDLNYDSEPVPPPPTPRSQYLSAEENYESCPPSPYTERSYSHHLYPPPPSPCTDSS
T1 sequence (O88572 20-1613): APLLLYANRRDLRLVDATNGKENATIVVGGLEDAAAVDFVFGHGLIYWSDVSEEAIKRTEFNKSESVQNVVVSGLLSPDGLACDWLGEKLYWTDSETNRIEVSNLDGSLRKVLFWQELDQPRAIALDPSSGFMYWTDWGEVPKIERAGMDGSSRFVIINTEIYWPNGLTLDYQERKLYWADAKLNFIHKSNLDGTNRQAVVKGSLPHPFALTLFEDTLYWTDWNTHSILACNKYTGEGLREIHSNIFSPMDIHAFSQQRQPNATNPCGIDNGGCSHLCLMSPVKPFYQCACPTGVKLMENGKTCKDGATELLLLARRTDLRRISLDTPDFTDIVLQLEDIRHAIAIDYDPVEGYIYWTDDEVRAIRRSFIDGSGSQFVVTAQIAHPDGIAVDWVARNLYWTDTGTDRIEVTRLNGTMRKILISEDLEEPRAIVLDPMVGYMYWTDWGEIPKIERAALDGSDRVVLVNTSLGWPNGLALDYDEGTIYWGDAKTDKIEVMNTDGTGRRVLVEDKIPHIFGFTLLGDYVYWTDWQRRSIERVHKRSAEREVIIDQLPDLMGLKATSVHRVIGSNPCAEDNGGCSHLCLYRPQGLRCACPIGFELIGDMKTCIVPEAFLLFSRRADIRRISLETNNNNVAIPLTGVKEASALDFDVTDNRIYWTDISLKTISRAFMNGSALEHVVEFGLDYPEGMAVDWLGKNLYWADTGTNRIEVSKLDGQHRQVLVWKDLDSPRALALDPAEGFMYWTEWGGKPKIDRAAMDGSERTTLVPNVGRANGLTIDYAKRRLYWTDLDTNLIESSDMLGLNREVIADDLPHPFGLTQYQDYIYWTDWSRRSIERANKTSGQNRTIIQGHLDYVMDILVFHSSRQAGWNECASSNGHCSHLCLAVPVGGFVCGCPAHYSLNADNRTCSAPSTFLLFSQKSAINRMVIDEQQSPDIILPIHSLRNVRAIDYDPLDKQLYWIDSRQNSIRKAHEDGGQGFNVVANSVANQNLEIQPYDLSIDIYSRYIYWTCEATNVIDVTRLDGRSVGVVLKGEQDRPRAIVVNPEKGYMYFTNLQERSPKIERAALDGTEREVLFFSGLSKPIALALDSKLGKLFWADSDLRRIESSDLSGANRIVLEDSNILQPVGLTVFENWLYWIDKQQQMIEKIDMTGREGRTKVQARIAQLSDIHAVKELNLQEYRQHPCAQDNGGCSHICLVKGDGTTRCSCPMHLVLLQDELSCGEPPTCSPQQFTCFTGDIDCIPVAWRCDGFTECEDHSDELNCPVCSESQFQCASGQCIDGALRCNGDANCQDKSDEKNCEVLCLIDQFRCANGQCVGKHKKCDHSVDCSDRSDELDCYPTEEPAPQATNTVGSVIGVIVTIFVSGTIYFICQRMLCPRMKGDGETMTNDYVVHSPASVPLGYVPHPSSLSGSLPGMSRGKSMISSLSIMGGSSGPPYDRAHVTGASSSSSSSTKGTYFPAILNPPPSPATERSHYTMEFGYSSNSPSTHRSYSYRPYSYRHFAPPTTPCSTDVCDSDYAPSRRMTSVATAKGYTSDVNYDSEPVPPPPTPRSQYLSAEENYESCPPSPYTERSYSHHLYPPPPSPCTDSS
T4 sequence (O75197 32-1615 limits assumed): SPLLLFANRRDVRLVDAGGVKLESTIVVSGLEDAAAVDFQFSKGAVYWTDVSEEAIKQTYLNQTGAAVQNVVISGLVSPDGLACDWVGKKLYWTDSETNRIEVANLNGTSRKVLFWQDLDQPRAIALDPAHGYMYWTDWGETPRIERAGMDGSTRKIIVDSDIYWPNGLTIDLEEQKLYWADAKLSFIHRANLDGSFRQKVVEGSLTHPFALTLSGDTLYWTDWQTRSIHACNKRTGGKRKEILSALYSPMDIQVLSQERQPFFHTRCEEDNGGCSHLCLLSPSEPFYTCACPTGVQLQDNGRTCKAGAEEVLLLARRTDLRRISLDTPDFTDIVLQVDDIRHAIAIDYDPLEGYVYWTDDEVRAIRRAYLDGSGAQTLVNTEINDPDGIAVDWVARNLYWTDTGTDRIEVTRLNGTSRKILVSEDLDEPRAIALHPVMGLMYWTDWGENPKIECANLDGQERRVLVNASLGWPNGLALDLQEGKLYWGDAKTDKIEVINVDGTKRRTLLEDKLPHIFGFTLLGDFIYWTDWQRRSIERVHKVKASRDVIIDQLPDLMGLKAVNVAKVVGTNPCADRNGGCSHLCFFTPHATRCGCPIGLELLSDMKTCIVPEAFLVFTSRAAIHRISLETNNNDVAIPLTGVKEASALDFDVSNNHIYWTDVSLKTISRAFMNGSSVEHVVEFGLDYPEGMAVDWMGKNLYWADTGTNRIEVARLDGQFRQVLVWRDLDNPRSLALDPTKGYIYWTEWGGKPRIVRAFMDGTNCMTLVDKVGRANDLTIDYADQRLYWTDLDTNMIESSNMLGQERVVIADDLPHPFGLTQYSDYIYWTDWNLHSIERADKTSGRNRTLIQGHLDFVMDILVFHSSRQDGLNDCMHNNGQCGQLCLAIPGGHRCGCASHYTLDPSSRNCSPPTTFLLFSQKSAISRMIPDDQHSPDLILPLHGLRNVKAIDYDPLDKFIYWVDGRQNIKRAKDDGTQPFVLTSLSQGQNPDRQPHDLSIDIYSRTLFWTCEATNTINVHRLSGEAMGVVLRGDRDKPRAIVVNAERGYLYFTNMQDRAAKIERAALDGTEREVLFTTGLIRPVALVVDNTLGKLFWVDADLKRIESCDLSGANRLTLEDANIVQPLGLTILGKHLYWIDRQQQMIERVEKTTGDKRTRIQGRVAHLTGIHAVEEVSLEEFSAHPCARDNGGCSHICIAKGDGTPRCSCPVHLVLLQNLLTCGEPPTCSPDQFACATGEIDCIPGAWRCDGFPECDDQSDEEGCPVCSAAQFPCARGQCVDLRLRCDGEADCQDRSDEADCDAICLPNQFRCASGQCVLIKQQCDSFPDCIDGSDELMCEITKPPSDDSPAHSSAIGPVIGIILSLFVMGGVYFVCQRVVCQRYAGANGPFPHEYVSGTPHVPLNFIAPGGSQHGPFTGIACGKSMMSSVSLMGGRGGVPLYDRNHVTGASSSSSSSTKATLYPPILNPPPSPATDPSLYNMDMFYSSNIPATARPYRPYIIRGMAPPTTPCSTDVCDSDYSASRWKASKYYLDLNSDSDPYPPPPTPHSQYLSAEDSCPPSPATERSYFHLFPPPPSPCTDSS

- IC50 of inhibition of LRP6 phosphorylation (Wnt3a-containing medium, RCEC, Western blot) [1]: 210 to 440 nM
- IC50 of inhibition of [14C]thymidine incorporation into RCEC (proliferation, 1% O2) [1]: 500 to 2000 nM
- EC50 of inhibition of Wnt1-induced TOPFLASH activity (hTERT-RPE cells) (endogenous human LRP6): ~20 µg/mL
- EC50 of suppression of Wnt3A-induced Luciferase activity (TOPFLASH, hTERT-RPE cells) (endogenous human LRP6): ~20 µg/mL
- binding result (endogenous mouse LRP6): binds
- binding result (VLDLR-N-His): no binding
- binding result (LRP6E3E4-His): no binding
- binding result [2]: no binding
B1: Anti-LRP6-1 (antibody, mouse IgG2, V domains shown)
VH: EVQLVESGGGLVQSKGSLKLSCAASGFTFNTYAMNWVRQAPGKGLEWVGRIRSKYNNYVTYYGDSVKDRFTISRDDSQSMLYLQMNNLKTEDTAMYYCVRQGRGSYAMDYWGQGTSVTVSS
VL: NIVMTQSPKSMSMSVGERVTLSCKASENVGTYVSWYQQKPEQSPKLLIYGASNRYTGVPDRFIGSGSATDFTLTIRSVQAEDLADYHCGQSYSYPTFGAGTKLELKR
notes: also called mAb2F1; 2F1
